Data set [1] addresses T1, recombinant human Seprase (rhuSeprase) (Homo sapiens, UniProt Q12884).
T1 construct: named pCEP4-IgKappa-huSeprase-coCHO_26-760aa-H6 and used for the generation of recombinant soluble human Seprase (rhuSeprase); mouse Ig kappa-chain V-J2-C secretion signal (N, cleaved yes); made in house; host or cells: FreeStyle CHO-S cells (transient transfection; purified from supernatant by Ni-chelate and SEC)
T1 sequence (Q12884 26-760): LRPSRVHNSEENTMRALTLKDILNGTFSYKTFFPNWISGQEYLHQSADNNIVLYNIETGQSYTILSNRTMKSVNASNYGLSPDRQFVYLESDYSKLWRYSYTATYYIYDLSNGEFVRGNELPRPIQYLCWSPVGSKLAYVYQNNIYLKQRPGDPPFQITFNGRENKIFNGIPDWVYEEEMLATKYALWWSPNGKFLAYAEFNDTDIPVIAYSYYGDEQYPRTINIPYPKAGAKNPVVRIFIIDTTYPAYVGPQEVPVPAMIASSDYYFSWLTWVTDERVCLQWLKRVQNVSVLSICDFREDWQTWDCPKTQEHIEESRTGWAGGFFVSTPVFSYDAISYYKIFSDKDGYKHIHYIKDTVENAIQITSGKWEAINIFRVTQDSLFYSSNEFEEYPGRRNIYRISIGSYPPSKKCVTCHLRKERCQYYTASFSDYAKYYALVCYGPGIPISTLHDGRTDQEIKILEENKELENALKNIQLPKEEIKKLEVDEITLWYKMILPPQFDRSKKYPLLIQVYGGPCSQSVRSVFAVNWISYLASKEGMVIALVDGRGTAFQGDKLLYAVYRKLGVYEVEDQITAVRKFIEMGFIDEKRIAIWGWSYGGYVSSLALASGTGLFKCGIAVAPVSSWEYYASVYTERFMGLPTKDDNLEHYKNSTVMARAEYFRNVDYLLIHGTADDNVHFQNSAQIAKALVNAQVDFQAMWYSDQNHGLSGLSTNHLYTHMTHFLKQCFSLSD
As to the kind of experiment: Surface plasmon resonance (Biacore T100) on immobilized rhuSeprase. Type of data set: binding.

The subject of another data set is CHO-K1-huSeprase tumors. As to the kind of experiment: Biodistribution and tumor targeting of AlexaFluor-680 conjugates, near-infrared optical imaging. Type of data set: in vivo, Fox n1 nu mice. The protocol:
For in vivo imaging assays female Fox n1 nu mice (6-8 weeks of age, Harlan, Envigo) were used. The experiments were performed according to national regulations and approved by the local animal experiments ethical committee. Subconfluent CHO-K1-huSeprase cells were harvested and resuspended in PBS to a density of 1×10^7 cells/ml. Prior to inoculation, cell viability was tested by 0.4% trypan blue exclusion assay (viable cells>90%). For subcutaneous injection 1×10^6 CHO-K1-huSeprase cells in 100 μl PBS were mixed with 100 μl Matrigel (Corning) and injected into the right side of the limb. When tumor volumes reached 600-800 mm^3, animals were randomly separated into several groups for different treatments (n=3 per each group). […] At different time points after the injection, mice were anaesthetized by inhalation of isoflurane. In vivo imaging was conducted using a Xenogen IVIS Spectrum imaging System (Perkin Elmer, USA). Maximal near infrared signals (NIRF) were quantified using Living Image 2.5 (Xenogen, Perkin Elmer) image analysis software. For ex vivo NIRF imaging, the mice were sacrificed, and the tumor and major organs of each mouse were excised, weighed and analyzed by Xenogen IVIS System.
To analyze the pharmacokinetic and tumor targeting properties of the AF680-(MC-FA-012)3 trimer biodistribution in female Fox n1 nu mice was monitored at six time points after injection (1, 2, 4, 6, 24 and 96 h). […] After each time point biodistibution was measured in vivo and ex vivo using a Xenogen Imaging system (FIG. 14 A+B). […] Overall, the background signals for the binder and for the non-binding control were in the same range.

B1: AF680-(MC-FA-012)3: AlexaFluor 680 conjugated MC-FA-012 trimer (conjugate)
chain 1: GACPYSNWTPGRGPDCRRDSDCPGRCICRGNGYCG
chain 2: B1 chain 1
chain 3: B1 chain 1
modifications: left off: things letters cannot carry; small tags and cut ends
notes: AlexaFluor 680 conjugated MC-FA-012 trimer
B1: the “offrate, times slower compared to MC-FA-012” value in data set [1] is given as “around 134 times”. The “ka” value in data set [1] (1:1 binding model) is 1.68e+07 M⁻¹ s⁻¹. For the same molecule, in the data set with CHO-K1-huSeprase tumors (mouse, in vivo), the kidney signals result is “strong kidney signals”; the “signals in lung, heart, spleen and liver” value is on record as “generally low”. Moreover, the tumor uptake entry in the data set on CHO-K1-huSeprase tumors (up to 24 h after injection) was “specific and significant tumor uptake”.

These data come from patent US10370433B2, “Compositions and methods for diagnosis and treatment of cancer” (BIONTECH AG, priority 2015, dated 2019).
